T1: human nectin-1 ectodomain, nectin-1(346t) (human), Q15223
T1 chain: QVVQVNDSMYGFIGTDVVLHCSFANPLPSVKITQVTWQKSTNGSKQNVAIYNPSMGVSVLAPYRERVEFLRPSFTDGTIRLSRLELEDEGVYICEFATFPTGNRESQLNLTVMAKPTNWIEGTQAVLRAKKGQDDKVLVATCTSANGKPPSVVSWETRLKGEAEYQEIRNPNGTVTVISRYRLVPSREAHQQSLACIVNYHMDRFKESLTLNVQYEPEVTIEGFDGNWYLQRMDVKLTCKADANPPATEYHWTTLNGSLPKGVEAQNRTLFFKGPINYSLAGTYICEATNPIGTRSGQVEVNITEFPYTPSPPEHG


What was measured:
[1] = target: human nectin-1 ectodomain, nectin-1(346t) (human) (UniProt Q15223); test: SEC-MALS; SEC combined with multi-angle light scattering, purified proteins in solution; data not shown
MAb CK41 = test: ELISA; settings: sub-panel CK41 (conf); immobilized antibody captures N1V-MBP; detection with anti-MBP-HRP; parent: est. 100; read off a plot
anti-nectin-1 Ig CK6 = test: ELISA; settings: sub-panel CK6 (80-105); immobilized antibody captures N1V-MBP; detection with anti-MBP-HRP; parent: est. 100; read off a plot
[2] = target: HSV-1 glycoprotein D ectodomain truncated at residue 306 (gD306t); test: ELISA; settings: read at the highest gD(306t) concentration, about 300 µg/ml; N1V-MBP immobilized; parent: est. 1.5; read off a plot
[3] = target: T1, human nectin-1 ectodomain, …; test: SEC-MALS; SEC combined with multi-angle light scattering, purified proteins in solution; data not shown; settings: remark: other sources report otherwise

| stoichiometry N [3] | Molecule | stoichiometry N [1] | percent of parent (% wt detection) (MAb CK41) | percent of parent (% wt detection) (anti-nectin-1 Ig CK6) | response [2] |
| --- | --- | --- | --- | --- | --- |
|  | HSV-1 KOS glycoprotein D ectodomain truncated at residue 285 (gD285t) (domain or fragment) | 1 |  |  |  |
|  | nectin-1 V-domain fused to maltose binding protein (N1V-MBP), wild type (from UniProt Q15223-1) F129S |  | 7 | 93 | 0.2 OD405nm |
|  | nectin-1 V-domain fused to maltose binding protein (N1V-MBP), wild type (from UniProt Q15223-1) F129W |  | 55 | 91 | 1.3 OD405nm |
|  | nectin-1 V-domain fused to maltose binding protein (N1V-MBP), wild type (from UniProt Q15223-1) N82Y |  |  | 68 | 0.12 OD405nm |
|  | nectin-1 V-domain fused to maltose binding protein (N1V-MBP), wild type (from UniProt Q15223-1) S84R |  | 120 | 90 | 1.3 OD405nm |
|  | nectin-1 V-domain fused to maltose binding protein (N1V-MBP), wild type (from UniProt Q15223-1) S84Y |  | 31 | 80 | 0.55 OD405nm |
|  | nectin-1 V-domain fused to maltose binding protein (N1V-MBP), wild type (from UniProt Q15223-1) T66Q |  | 71 | 110 | 1.4 OD405nm |
| 2 | human nectin-1 ectodomain, nectin-1(346t), Q15223-1 31-346 (receptor) QVVQVNDSMYGFIGTDVVLHCSFANPLPSVKITQVTWQKSTNGSKQNVAIYNPSMGVSVLAPYRERVEFLRPSFTDGTIRLSRLELEDEGVYICEFATFPTGNRESQLNLTVMAKPTNWIEGTQAVLRAKKGQDDKVLVATCTSANGKPPSVVSWETRLKGEAEYQEIRNPNGTVTVISRYRLVPSREAHQQSLACIVNYHMDRFKESLTLNVQYEPEVTIEGFDGNWYLQRMDVKLTCKADANPPATEYHWTTLNGSLPKGVEAQNRTLFFKGPINYSLAGTYICEATNPIGTRSGQVEVNITEFPYTPSPPEHG |  |  |  |  |

— article PMC3182920
